Source: PMC9896928

Target: glutathione transferase (GST) tag-fused cGAS
Test: SEC + other: fluorescence correlation spectroscopy

## glutathione transferase (GST) tag-fused cGAS (enzyme)
  stoichiometry N: 2
